According to patent publication US20200165333A1 (University of Pennsylvania, published 2020):

Assays:
[1] = target: T1, human platelet factor 4 (PF4) (human, UniProt P02776 32-101); assay: SPR (Biacore), human PF4 immobilized on CM5 chip; antibody expressed in 293T cells
T1 construct: Immobilized on a CM5 chip (Biacore) or on an ELISA plate; also called human PF4
T1 sequence (looked up): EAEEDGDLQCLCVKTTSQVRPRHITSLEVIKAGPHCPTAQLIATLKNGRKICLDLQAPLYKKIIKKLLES
Protocol: (§1) The binding affinity of the mammalian-cell-expressed RTO antibodies to human PF4 immobilized on the surface of a CM5 chip was evaluated using Biacore technology. The humanized antibody (huLight, huHeavy) binds to human PF4 at nM levels (Table 1), which is almost identical to the hybridoma-expressed and mammalian-cell-expressed parental antibody mRTO (mLight, mHeavy).

[2] = target: T1, human platelet factor 4 (PF4); assay: SPR (Biacore), human PF4 immobilized on CM5 chip; antibody expressed in expi-CHO cells
Protocol: as §1

B1: humanized RTO antibody (huLight, huHeavy) (antibody, V domains shown)
VH: EVQLVESGGGLVQPGGSLRLSCAASGFAFSRYDMSWVRQAPGKGLEWVATITSGDNYTYYPDSVKGRFTISRDNSKNTLYLQMNSLRAEDTAVYYCTRQGLLYYAMDYWGQGTLVTVSS
VL: DIQMTQSPSSLSASVGDRVTISCSASQGINNYLSWYRQKPGKAPKLLIYYTSSLHSGVPSRFSGSGSGTDFTLTISSLQPEDFATYFCQQFSKLPYTFGGGTKVEIKR
notes: Tested as expressed in 293T and in expi-CHO cells; also called huRTO; HuRTO
Kd [1]: 0.75 nM | Kd [2]: 2 nM
